From the supplement of paper PMC5998384 come the findings set out here.

Data set [1] relates to HeLa Kyoto. Briefly: solubility in G1/S (NP-40 vs SDS abundance) (log2 ratio); higher = more soluble. As to conditions: cell cycle stage: G1/S.
Data set [2] has as its system HeLa Kyoto. Briefly: melting temperature (median over replicates), in situ; higher = more thermally stable.
Data set [3] deals with HeLa Kyoto. Briefly: solubility change mitosis vs G1/S (difference of NP-40 vs SDS log2 ratios) (log2 ratio difference); higher = more soluble in mitosis.
The test system of data set [4] is HeLa Kyoto. Briefly: thermal stability score vs G1/S (z-score of summed log2 fold changes over temperatures); higher = more thermally stable than in G1/S.
[5] abbreviates: cell cycle stage: early G1 (4.5 h after nocodazole release).
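For melting temperature (median over replicates), in situ in this document: HeLa Kyoto cells synchronized by double thymidine or nocodazole block, proteins quantified by TMT10plex mass spectrometry, three independent biological replicates.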
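For solubility change mitosis vs G1/S (difference of NP-40 vs SDS log2 ratios) in this document: synchronized HeLa Kyoto cells (double thymidine block for G1/S, nocodazole release for mitosis), protein amounts in NP-40 versus SDS lysates quantified by mass spectrometry, three biological replicates.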
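For solubility in G1/S (NP-40 vs SDS abundance) in this document: HeLa Kyoto cells arrested at G1/S by double thymidine block, proteins quantified by TMT10plex mass spectrometry in mild NP-40 versus SDS extracts, three biological replicates.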
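For thermal stability score vs G1/S (z-score of summed log2 fold changes over temperatures) in this document: synchronized HeLa Kyoto cells, proteins quantified by TMT10plex mass spectrometry, three biological replicates, mitosis taken 0.5 h after nocodazole release, G1/S directly after double thymidine block.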

For the sequence “MSAKAISEQTGKELLYKFICTTSAIQNRFKYARVTPDTDWARLLQDHPWLLSQNLVVKPDQLIKRRGKLGLVGVNLTLDGVKSWLKPRLGQEATVGKATGFLKNFLIEPFVPHSQAEEFYVCIYATREGDYVLFHHEGGVDVGDVDAKAQKLLVGVDEKLNPEDIKKHLLVHAPEDKKEILASFISGLFNFYEDLYFTYLEINPLVVTKDGVYVLDLAAKVDATADYICKVKWGDIEFPPPFGREAYPEEAYIADLDAKSGASLKLTLLNPKGRIWTMVAGGGASVVYSDTICDLGGVNELANYGEYSGAPSEQQTYDYAKTILSLMTREKHPDGKILIIGGSIANFTNVAATFKGIVRAIRDYQGPLKEHEVTIFVRRGGPNYQEGLRVMGEVGKTTGIPIHVFGTETHMTAIVGMALGHRPIPNQPPTAAHTANFLLNASGSTSTPAPSRTASFSESRADEVAPAKKAKPAMPQDSVPSPRSLQGKSTTLFSRHTKAIVWGMQTRAVQGMLDFDYVCSRDEPSVAAMVYPFTGDHKQKFYWGHKEILIPVFKNMADAMRKHPEVDVLINFASLRSAYDSTMETMNYAQIRTIAIIAEGIPEALTRKLIKKADQKGVTIIGPATVGGIKPGCFKIGNTGGMLDNILASKLYRPGSVAYVSRSGGMSNELNNIISRTTDGVYEGVAIGGDRYPGSTFMDHVLRYQDTPGVKMIVVLGEIGGTEEYKICRGIKEGRLTKPIVCWCIGTCATMFSSEVQFGHAGACANQASETAVAKNQALKEAGVFVPRSFDELGEIIQSVYEDLVANGVIVPAQEVPPPTVPMDYSWARELGLIRKPASFMTSICDERGQELIYAGMPITEVFKEEMGIGGVLGLLWFQKRLPKYSCQFIEMCLMVTADHGPAVSGAHNTIICARAGKDLVSSLTSGLLTIGDRFGGALDAAAKMFSKAFDSGIIPMEFVNKMKKEGKLIMGIGHRVKSINNPDMRVQILKDYVRQHFPATPLLDYALEVEKITTSKKPNLILNVDGLIGVAFVDMLRNCGSFTREEADEYIDIGALNGIFVLGRSMGFIGHYLDQKRLKQGLYRHPWDDISYVLPEHMSM [ACLY]”, in data set [1], the “solubility in G1/S (log2)” value was -0.0323. The melting temperature came to 52.2 °C in data set [2] (cell cycle stage: G1/S) and 52.6 °C in data set [2] (cell cycle stage: mitosis). In addition, the “solubility change mitosis (log2)” value in data set [3] is -0.156. In addition, the thermal stability score in data set [4] (setting [5]) amounted to 2.8; in data set [4] (cell cycle stage: mitosis), 4.04.
Take “MSALEWYAHKSLGDGIFWIQERFYESGNRANIWLVRGSEQDVVIDTGLGLRSLPEYLYSSGLLQDREAKEDAARRPLLAVATHVHFDHSGGLYQFDRVAVHHAEAEALARGDNFETVTWLSDSEVVRTPSPGWRARQFRVQAVQPTLILQDGDVINLGDRQLTVMHMPGHSRGSICLHDKDRKILFSGDVVYDGSLIDWLPYSRISDYVGTCERLIELVDRGLVEKVLPGHFNTFGAERLFRLASNYISKAGICHKVSTFAMRSLASLALRVTNSRTSP [MBLAC2]”: the “solubility in G1/S (log2)” value in data set [1] was -0.203. Moreover, the melting temperature in data set [2] (cell cycle stage: G1/S) was 55.4 °C; in data set [2] (cell cycle stage: mitosis) it was 54.6 °C. In addition, in data set [3], the “solubility change mitosis (log2)” value came to 0.0124. The thermal stability score in data set [4] (setting [5]) was -1.94; in data set [4] (cell cycle stage: mitosis), -1.79.
As to “MSAPAGSSHPAASARIPPKFGGAAVSGAAAPAGPGAGPAPHQQNGPAQNQMQVPSGYGLHHQNYIAPSGHYSQGPGKMTSLPLDTQCGDYYSALYTVPTQNVTPNTVNQQPGAQQLYSRGPPAPHIVGSTLGSFQGAASSASHLHTSASQPYSSFVNHYNSPAMYSASSSVASQGFPSTCGHYAMSTVSNAAYPSVSYPSLPAGDTYGQMFTSQNAPTVRPVKDNSFSGQNTAISHPSPLPPLPSQQHHQQQSLSGYSTLTWSSPGLPSTQDNLIRNHTGSLAVANNNPTITVADSLSCPVMQNVQPPKSSPVVSTVLSGSSGSSSTRTPPTANHPVEPVTSVTQPSELLQQKGVQYGEYVNNQASSAPTPLSSTSDDEEEEEEDEEAGVDSSSTTSSASPMPNSYDALEGGSYPDMLSSSASSPAPDPAPEPDPASAPAPASAPAPVVPQPSKMAKPFGYGYPTLQPGYQNATAPLISGVQPSNPVYSGFQQYPQQYPGVNQLSSSIGGLSLQSSPQPESLRPVNLTQERNILPMTPVWAPVPNLNADLKKLNCSPDSFRCTLTNIPQTQALLNKAKLPLGLLLHPFRDLTQLPVITSNTIVRCRSCRTYINPFVSFIDQRRWKCNLCYRVNDVPEEFMYNPLTRSYGEPHKRPEVQNSTVEFIASSDYMLRPPQPAVYLFVLDVSHNAVEAGYLTILCQSLLENLDKLPGDSRTRIGFMTFDSTIHFYNLQEGLSQPQMLIVSDIDDVFLPTPDSLLVNLYESKELIKDLLNALPNMFTNTRETHSALGPALQAAFKLMSPTGGRVSVFQTQLPSLGAGLLQSREDPNQRSSTKVVQHLGPATDFYKKLALDCSGQQTAVDLFLLSSQYSDLASLACMSKYSAGCIYYYPSFHYTHNPSQAEKLQKDLKRYLTRKIGFEAVMRIRCTKGLSMHTFHGNFFVRSTDLLSLANINPDAGFAVQLSIEESLTDTSLVCFQTALLYTSSKGERRIRVHTLCLPVVSSLADVYAGVDVQAAICLLANMAVDRSVSSSLSDARDALVNAVVDSLSAYGSTVSNLQHSALMAPSSLKLFPLYVLALLKQKAFRTGTSTRLDDRVYAMCQIKSQPLVHLMKMIHPNLYRIDRLTDEGAVHVNDRIVPQPPLQKLSAEKLTREGAFLMDCGSVFYIWVGKGCDNNFIEDVLGYTNFASIPQKMTHLPELDTLSSERARSFITWLRDSRPLSPILHIVKDESPAKAEFFQHLIEDRTEAAFSYYEFLLHVQQQICK [SEC24B]”, in data set [1], the “solubility in G1/S (log2)” value was -0.132. Moreover, the melting temperature in data set [2] (cell cycle stage: G1/S) was determined as 48.8 °C; in data set [2] (cell cycle stage: mitosis), 49.5 °C. The “solubility change mitosis (log2)” value in data set [3] was -0.119. In addition, the thermal stability score in data set [4] (setting [5]) was determined as 1.03; in data set [4] (cell cycle stage: mitosis), 1.85.
In the case of “MSASASVGGPVPQPPPGPAAALPPGSAARALHVELPSQQRRLRHLRNIAARNIVNRNGHQLLDTYFTLHLCSTEKIYKEFYRSEVIKNSLNPTWRSLDFGIMPDRLDTSVSCFVVKIWGGKENIYQLLIEWKVCLDGLKYLGQQIHARNQNEIIFGLNDGYYGAPFEHKGYSNAQKTILLQVDQNCVRNSYDVFSLLRLHRAQCAIKQTQVTVQKIGKEIEEKLRLTSTSNELKKKSECLQLKILVLQNELERQKKALGREVALLHKQQIALQDKGSAFSAEHLKLQLQKESLNELRKECTAKRELFLKTNAQLTIRCRQLLSELSYIYPIDLNEHKDYFVCGVKLPNSEDFQAKDDGSIAVALGYTAHLVSMISFFLQVPLRYPIIHKGSRSTIKDNINDKLTEKEREFPLYPKGGEKLQFDYGVYLLNKNIAQLRYQHGLGTPDLRQTLPNLKNFMEHGLMVRCDRHHTSSAIPVPKRQSSIFGGADVGFSGGIPSPDKGHRKRASSENERLQYKTPPPSYNSALAQPVTTVPSMGETERKITSLSSSLDTSLDFSKENKKKGEDLVGSLNGGHANVHPSQEQGEALSGHRATVNGTLLPSEQAGSASVQLPGEFHPVSEAELCCTVEQAEEIIGLEATGFASGDQLEAFNCIPVDSAVAVECDEQVLGEFEEFSRRIYALNENVSSFRRPRRSSDK [UVRAG]”, in data set [1], the “solubility in G1/S (log2)” value came to 0.216. For the same sequence, the melting temperature in data set [2] (cell cycle stage: G1/S) was 51.7 °C; in data set [2] (cell cycle stage: mitosis), 52.4 °C. Besides, the “solubility change mitosis (log2)” value in data set [3] was -0.117. The thermal stability score in data set [4] (setting [5]) is 0.204; in data set [4] (cell cycle stage: mitosis), -0.16.
Take “MSASSLLEQRPKGQGNKVQNGSVHQKDGLNDDDFEPYLSPQARPNNAYTAMSDSYLPSYYSPSIGFSYSLGEAAWSTGGDTAMPYLTSYGQLSNGEPHFLPDAMFGQPGALGSTPFLGQHGFNFFPSGIDFSAWGNNSSQGQSTQSSGYSSNYAYAPSSLGGAMIDGQSAFANETLNKAPGMNTIDQGMAALKLGSTEVASNVPKVVGSAVGSGSITSNIVASNSLPPATIAPPKPASWADIASKPAKQQPKLKTKNGIAGSSLPPPPIKHNMDIGTWDNKGPVAKAPSQALVQNIGQPTQGSPQPVGQQANNSPPVAQASVGQQTQPLPPPPPQPAQLSVQQQAAQPTRWVAPRNRGSGFGHNGVDGNGVGQSQAGSGSTPSEPHPVLEKLRSINNYNPKDFDWNLKHGRVFIIKSYSEDDIHRSIKYNIWCSTEHGNKRLDAAYRSMNGKGPVYLLFSVNGSGHFCGVAEMKSAVDYNTCAGVWSQDKWKGRFDVRWIFVKDVPNSQLRHIRLENNENKPVTNSRDTQEVPLEKAKQVLKIIASYKHTTSIFDDFSHYEKRQEEEESVKKERQGRGK [YTHDF2]”: in data set [1], the “solubility in G1/S (log2)” value turned out to be 0.00424. The melting temperature in data set [2] (cell cycle stage: G1/S) was found to be 51 °C; in data set [2] (cell cycle stage: mitosis) it was 50.7 °C. Also, the “solubility change mitosis (log2)” value in data set [3] is 0.0349. Also, the thermal stability score was -0.975 in data set [4] (setting [5]) and -1.92 in data set [4] (cell cycle stage: mitosis).
